Results as given in the supplement of paper PMC10567573.

B1: NEUROD6 (parent)
chain: YHSPELTTPPGHGTLDNSKSMKPY

Variants of: B1
Experiment: protein stability index of a GFP-peptide fusion (GPS, HEK-293T) (PSI 1-6); higher = more stable
Details: c terminus: a fixed tail appended
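Further: lentivirally expressed fusions sorted by FACS into six bins by GFP to DsRed ratio, PSI derived from sequencing read proportions per bin multiplied by bin number.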

| Variant | protein stability index |
| --- | --- |
| YHSPEKTTPPGHGTLDNSKSMKPY [L6K] | 4.08 |
| YHSPEMTTPPGHGTLDNSKSMKPY [L6M] | 2.33 |
| YHSPENTTPPGHGTLDNSKSMKPY [L6N] | 3.25 |
| YHSPEDTTPPGHGTLDNSKSMKPY [L6D] | 4.05 |
| YHSPEFTTPPGHGTLDNSKSMKPY [L6F] | 2.85 |
| YHSPEITTPPGHGTLDNSKSMKPY [L6I] | 2.63 |
| YHSPEHTTPPGHGTLDNSKSMKPY [L6H] | 3.28 |
| YHSPEYTTPPGHGTLDNSKSMKPY [L6Y] | 1.5 |
| YHSPEWTTPPGHGTLDNSKSMKPY [L6W] | 2.97 |
| YHSPEGTTPPGHGTLDNSKSMKPY [L6G] | 3.05 |
| YHSPERTTPPGHGTLDNSKSMKPY [L6R] | 4.02 |
| YHSPEQTTPPGHGTLDNSKSMKPY [L6Q] | 3.32 |
| YHSPEETTPPGHGTLDNSKSMKPY [L6E] | 3.86 |
| YHSPETTTPPGHGTLDNSKSMKPY [L6T] | 3.28 |
| YHSPESTTPPGHGTLDNSKSMKPY [L6S] | 3.13 |
| YHSPEVTTPPGHGTLDNSKSMKPY [L6V] | 2.39 |
| YHSPELTTPPGFGTLDNSKSMKPY [H12F] | 1.97 |
| YHSPELTTPPGMGTLDNSKSMKPY [H12M] | 2.56 |
| YHSPELTTPPGRGTLDNSKSMKPY [H12R] | 2.25 |
| YHSPELTTPPGWGTLDNSKSMKPY [H12W] | 1.43 |
| YHSPELTTPPGSGTLDNSKSMKPY [H12S] | 1.96 |
| YHSPELTTPPGAGTLDNSKSMKPY [H12A] | 2.16 |
| YHSPELTTPPGCGTLDNSKSMKPY [H12C] | 2.25 |
| YHSPELTTPPGVGTLDNSKSMKPY [H12V] | 2.16 |

| Variant | protein stability index |
| --- | --- |
| YHSPELTTPPGGGTLDNSKSMKPY [H12G] | 2.48 |
| YHSPELTTPPGEGTLDNSKSMKPY [H12E] | 2.24 |
| YHSPELTTPPGDGTLDNSKSMKPY [H12D] | 2.56 |
| YHSPELTTPPGYGTLDNSKSMKPY [H12Y] | 1.71 |
| YHSPELTTPPGNGTLDNSKSMKPY [H12N] | 2.49 |
| YHSPELTTPPGTGTLDNSKSMKPY [H12T] | 2.53 |
| YHSPELTTPPGKGTLDNSKSMKPY [H12K] | 2.18 |
| YHSPELTTPPGQGTLDNSKSMKPY [H12Q] | 2.21 |
| YHSPELTTPPGLGTLDNSKSMKPY [H12L] | 2.29 |
| YHSPELTTPPGIGTLDNSKSMKPY [H12I] | 2.01 |
| YHSPELTTPPGPGTLDNSKSMKPY [H12P] | 2.25 |
| YHSPELTTPTGHGTLDNSKSMKPY [P10T] | 1.7 |
| YHSPELTTPDGHGTLDNSKSMKPY [P10D] | 2.74 |
| YHSPELTTPFGHGTLDNSKSMKPY [P10F] | 2.03 |
| YHSPELTTPKGHGTLDNSKSMKPY [P10K] | 2.13 |
| YHSPELTTPIGHGTLDNSKSMKPY [P10I] | 1.67 |
| YHSPELTTPYGHGTLDNSKSMKPY [P10Y] | 1.96 |
| YHSPELTTPMGHGTLDNSKSMKPY [P10M] | 1.88 |
| YHSPELTTPVGHGTLDNSKSMKPY [P10V] | 2.33 |
| YHSPELTTPEGHGTLDNSKSMKPY [P10E] | 2.42 |
| YHSPELTTPQGHGTLDNSKSMKPY [P10Q] | 2.02 |
| YHSPELTTPWGHGTLDNSKSMKPY [P10W] | 3.84 |
| YHSPELTTPRGHGTLDNSKSMKPY [P10R] | 2.3 |
| YHSPELTTPCGHGTLDNSKSMKPY [P10C] | 1.9 |

| Variant | protein stability index |
| --- | --- |
| YHSPELTTPLGHGTLDNSKSMKPY [P10L] | 2.13 |
| YHSPELTTPHGHGTLDNSKSMKPY [P10H] | 2.17 |
| YHSPELTTPSGHGTLDNSKSMKPY [P10S] | 1.75 |
| YHSPELTTPNGHGTLDNSKSMKPY [P10N] | 1.97 |
| YHSPELTTPAGHGTLDNSKSMKPY [P10A] | 1.81 |
| YHSPELTTPGGHGTLDNSKSMKPY [P10G] | 1.78 |
| YHSPELTTPPGHGTRDNSKSMKPY [L15R] | 2 |
| YHSPELTTPPGHGTMDNSKSMKPY [L15M] | 1.9 |
| YHSPELTTPPGHGTDDNSKSMKPY [L15D] | 2.69 |
| YHSPELTTPPGHGTVDNSKSMKPY [L15V] | 2.26 |
| YHSPELTTPPGHGTFDNSKSMKPY [L15F] | 1.77 |
| YHSPELTTPPGHGTEDNSKSMKPY [L15E] | 2.12 |
| YHSPELTTPPGHGTADNSKSMKPY [L15A] | 2.17 |
| YHSPELTTPPGHGTWDNSKSMKPY [L15W] | 1.82 |
| YHSPELTTPPGHGTSDNSKSMKPY [L15S] | 2.35 |
| YHSPELTTPPGHGTNDNSKSMKPY [L15N] | 2.46 |
| YHSPELTTPPGHGTCDNSKSMKPY [L15C] | 2.1 |
| YHSPELTTPPGHGTTDNSKSMKPY [L15T] | 3.01 |
| YHSPELTTPPGHGTQDNSKSMKPY [L15Q] | 2.77 |
| YHSPELTTPPGHGTIDNSKSMKPY [L15I] | 2.17 |
| YHSPELTTPPGHGTGDNSKSMKPY [L15G] | 2.24 |
| YHSPELTTPPGHGTKDNSKSMKPY [L15K] | 2.2 |
| YHSPELTTPPGHGTYDNSKSMKPY [L15Y] | 2.27 |
| YHSPELTTPPGHGTHDNSKSMKPY [L15H] | 2.36 |

| Variant | protein stability index |
| --- | --- |
| YHSPELTTPPGHGVLDNSKSMKPY [T14V] | 1.79 |
| YHSPELTTPPGHGCLDNSKSMKPY [T14C] | 1.9 |
| YHSPELTTPPGHGYLDNSKSMKPY [T14Y] | 1.77 |
| YHSPELTTPPGHGKLDNSKSMKPY [T14K] | 2.07 |
| YHSPELTTPPGHGFLDNSKSMKPY [T14F] | 2.07 |
| YHSPELTTPPGHGLLDNSKSMKPY [T14L] | 1.86 |
| YHSPELTTPPGHGRLDNSKSMKPY [T14R] | 2.07 |
| YHSPELTTPPGHGDLDNSKSMKPY [T14D] | 2.27 |
| YHSPELTTPPGHGGLDNSKSMKPY [T14G] | 1.87 |
| YHSPELTTPPGHGILDNSKSMKPY [T14I] | 1.9 |
| YHSPELTTPPGHGSLDNSKSMKPY [T14S] | 2.25 |
| YHSPELTTPPGHGWLDNSKSMKPY [T14W] | 2.37 |
| YHSPELTTPPGHGELDNSKSMKPY [T14E] | 2.51 |
| YHSPELTTPPGHGHLDNSKSMKPY [T14H] | 2.24 |
| YHSPELTTPPGHGALDNSKSMKPY [T14A] | 2.44 |
| YHSPELTTPPGHGQLDNSKSMKPY [T14Q] | 1.6 |
| YHSPELTTPPGHGNLDNSKSMKPY [T14N] | 3.02 |
| YHSPELTTPPGHGMLDNSKSMKPY [T14M] | 2.33 |
| YHSPELTTQPGHGTLDNSKSMKPY [P9Q] | 2.22 |
| YHSPELTTNPGHGTLDNSKSMKPY [P9N] | 2.24 |
| YHSPELTTWPGHGTLDNSKSMKPY [P9W] | 1.94 |
| YHSPELTTKPGHGTLDNSKSMKPY [P9K] | 2.45 |
